From US20260078341A1 (published 2026) come the findings set out here.

Experiment [1] has as its target T1, EGFR on cells (tumor lines, primary cell lines, K562 cells electroporated with EGFR mRNA, A431) (UniProt P00533 25-1210). Put plainly: not stated; affinity of the scFv.
Experiment [2] has as its target T1, EGFR on cells (tumor lines, primary …). The experiment can be described thus: not stated; affinity of the scFv. The source holds these as a separate data set.

Numbering of substitutions follows the chain as printed. Where two headings read alike, the source gives them in different places.

B1: P2-4BBZ CAR (other)
chain: DYKDDDDKEVQLVQSGAEVKKPGSSVKVSCKASGGTFSSYAISWVRQAPGQGLEWMGGIIPIFGTANYAQKFQGRVTITADESTSTAYMELSSLRSEDTAVYYCAREEGPYCSSTSCYAAFDIWGQGTLVTVSSGGGGSGGGGSGGGGSQSVLTQDPAASVALGQTVKITCQGDSLRSYFASWYQQKPGQAPTLVMYARNDRPAGVPDRFSGSKSGTSASLAISGLQSEDEADYYCAAWDDSLNGYLFGAGTKLTVLTTTPAPRPPTPAPTIASQPLSLRPEACRPAAGGAVHTRGLDFACDIYIWAPLAGTCGVLLLSLVITLYCKRGRKKLLYIFKQPFMRPVQTTQEEDGCSCRFPEEEEGGCELRVKFSRSADAPAYKQGQNQLYNELNLGRREEYDVLDKRRGRDPEMGGKPRRKNPQEGLYNELQKDKMAEAYSEIGMKGERRRGKGHDGLYQGLSTATKDTYDALHMQALPPR
The Kd is a measure of binding affinity in units of concentration. Take B1: the equilibrium dissociation constant (Kd) in experiment [1] and in experiment [2] was 15.4 nM in each case.

B2: P3-5BBZ CAR (other)
chain: B1 chain with M56V, T77K, T84A, A119G, A159V, F180L, M196T
For the molecule B2, the dissociation constant (Kd) in experiment [1] and in experiment [2] was 88.2 nM each time.

B3: C10-BBZ CAR (other)
chain: B1 chain with A119G, A159V
Turning to B3, the Kd in experiment [1] and in experiment [2] was 264 nM each time.
